Residue numbers refer to the chain shown, from its start. In names and notes the source's numbering stands. Numbered stars: 1 amine (or outer) side, 2 acyl side, 3 side chain; on linkers, the order of the positions; unused ones are H or OH. Square brackets hold non-standard residues; d marks the D form. Ends that are not written are not given here. Peptide text beside a SMILES is read from it. * marks the point of attachment. Tyr(OMe) = O-methyl-tyrosine, COc1ccc(C[C@H](N[*:1])C(=O)[*:2])cc1; Orn = NCCC[C@H](N)C(=O)O; Hexanoyl = CCCCCC(=O)*; Aib = CC(C)(N)C(=O)O
B1: VPAC2 receptor peptide agonist P395 (peptide)
peptide: HSDAVFTDQYTXLRXQLAAXXYLQSIXXGGPSSGAPPPS
modifications: N-terminal hexanoyl (C6); Orn at 12, 21, 27 and 28; Aib at 15 and 20
B2: VPAC2 receptor peptide agonist P487 (peptide)
peptide: B1 peptide with D8E
modifications: N-terminal hexanoyl (C6); Tyr(OMe) at 10; Orn at 12, 21, 27 and 28; Aib at 15 and 20; C-terminal amide (-NH2)
B3: VPAC2 receptor peptide agonist P396 (peptide)
peptide: B1 peptide with L17V
modifications: N-terminal hexanoyl (C6); Orn at 12, 21, 27 and 28; Aib at 15 and 20
B4: VPAC2 receptor peptide agonist P367 (peptide)
peptide: Hexanoyl-HSDAVFTDNYTLLR[Aib]QVAA[Aib]KYLQSI[Orn]N[Orn]GGPSSGAPPPS
B5: VPAC2 receptor peptide agonist P390 (peptide)
peptide: HSDAVFTDNYTXLRXSVAAXKYLQSIXNXGGPSSGAPPPS
modifications: N-terminal hexanoyl (C6); Orn at 12, 27 and 29; Aib at 15 and 20
B6: VPAC2 receptor peptide agonist P407 (peptide)
peptide: Hexanoyl-HSDAVFTDQYTR[Aib]R[Aib]QLAA[Aib]KYLQSIK[Aib]KGGPSSGAPPPS
B7: VPAC2 receptor peptide agonist P405 (peptide)
peptide: Hexanoyl-HSDAVFTDNYTR[Aib]R[Aib]QVAA[Aib]KYLQSIK[Aib]KGGPSSGAPPPS
B8: VPAC2 receptor peptide agonist P409 (peptide)
peptide: Hexanoyl-HSEAVFTEQ[Tyr(OMe)]TR[Aib]R[Aib]QLAA[Aib]KYLQSIK[Aib]KGGPSSGAPPPS

Molecular target: T1, rat VPAC1 receptor (rat, UniProt P30083 31-459)
T1 sequence (looked up): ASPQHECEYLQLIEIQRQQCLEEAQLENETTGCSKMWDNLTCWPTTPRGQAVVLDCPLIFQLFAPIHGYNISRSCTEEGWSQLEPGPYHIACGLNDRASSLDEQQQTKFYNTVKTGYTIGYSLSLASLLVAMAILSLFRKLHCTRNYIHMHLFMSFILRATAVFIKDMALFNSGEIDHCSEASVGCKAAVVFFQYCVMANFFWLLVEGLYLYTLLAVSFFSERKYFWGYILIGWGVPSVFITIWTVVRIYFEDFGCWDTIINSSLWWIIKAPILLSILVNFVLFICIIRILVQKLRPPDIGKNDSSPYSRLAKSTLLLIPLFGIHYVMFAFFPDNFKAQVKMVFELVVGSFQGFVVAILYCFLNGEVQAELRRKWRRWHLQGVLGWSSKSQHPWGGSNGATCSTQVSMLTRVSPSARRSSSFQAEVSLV
Assay: cell-based or functional assay
Details: not given

First: B1
Second: B2
The “Rat VPAC1 Receptor: DiscoveRx (EC50; nM), cAMP generation” value (shortened to “Rat VPAC1 Receptor: DiscoveRx”) of the first is 4.1-fold lower: 0.35 nM for the first, 1.42 nM for the second.

First: B3
Second: B4
The “Rat VPAC1 Receptor: DiscoveRx” value of the first is 72-fold lower: 1.05 nM for the first, 75.3 nM for the second.

In the case of B5, the “Rat VPAC1 Receptor: DiscoveRx” value is reported as 1.34 nM.

Molecular target: T2, rat VPAC2 receptor (rat, UniProt P35000 23-437)
T2 sequence (looked up): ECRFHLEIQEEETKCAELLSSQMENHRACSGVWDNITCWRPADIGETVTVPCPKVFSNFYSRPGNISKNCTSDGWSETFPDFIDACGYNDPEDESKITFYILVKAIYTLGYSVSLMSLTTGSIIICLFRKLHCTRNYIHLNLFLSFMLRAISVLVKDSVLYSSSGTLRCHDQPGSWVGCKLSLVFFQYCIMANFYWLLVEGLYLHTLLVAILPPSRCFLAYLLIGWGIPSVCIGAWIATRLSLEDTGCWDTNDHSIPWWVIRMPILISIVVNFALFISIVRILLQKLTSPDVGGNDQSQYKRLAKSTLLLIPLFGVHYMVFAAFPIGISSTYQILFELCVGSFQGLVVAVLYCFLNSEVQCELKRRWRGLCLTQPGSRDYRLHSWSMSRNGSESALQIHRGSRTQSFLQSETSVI
Assay: cell-based or functional assay
Details: not given

B1 and B2 are the same in “Rat VPAC2 Receptor: DiscoveRx (EC50; nM), cAMP generation” value (shortened to “Rat VPAC2 Receptor: DiscoveRx”): 0.03 nM for the first, 0.03 nM for the second.

Going from B3 to B6, the “Rat VPAC2 Receptor: DiscoveRx” value falls from 0.05 nM to 0.03 nM (1.7-fold).

Going from B7 to B4, the “Rat VPAC2 Receptor: DiscoveRx” value rises from 0.04 nM to 6.14 nM (150-fold).

For B5, the “Rat VPAC2 Receptor: DiscoveRx” value was 0.09 nM.

Molecular target: T3, human VPAC2 receptor (human, UniProt P41587 24-438)
T3 sequence (looked up): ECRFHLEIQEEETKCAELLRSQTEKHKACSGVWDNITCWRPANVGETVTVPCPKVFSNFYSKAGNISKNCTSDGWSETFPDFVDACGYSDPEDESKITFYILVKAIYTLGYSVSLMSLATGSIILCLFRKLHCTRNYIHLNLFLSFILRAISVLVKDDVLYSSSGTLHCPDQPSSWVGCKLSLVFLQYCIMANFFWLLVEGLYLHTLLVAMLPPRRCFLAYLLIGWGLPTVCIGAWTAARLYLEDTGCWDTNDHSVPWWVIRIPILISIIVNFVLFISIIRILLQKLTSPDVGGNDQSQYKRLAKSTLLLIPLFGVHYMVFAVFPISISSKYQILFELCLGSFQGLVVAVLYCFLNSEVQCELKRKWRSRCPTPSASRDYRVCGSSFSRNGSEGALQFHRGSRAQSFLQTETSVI
Assay: cell-based or functional assay
Details: not given

Going from B1 to B2, the “Human VPAC2 Receptor: Alpha Screen (EC50; nM), cAMP generation” value (from here on “Human VPAC2 Receptor: Alpha Screen”) rises from 0.15 nM to 0.24 nM (1.6-fold).

B3 and B6 are within 1.5-fold of each other in “Human VPAC2 Receptor: Alpha Screen” value: 0.11 nM for the first, 0.12 nM for the second.

Compared with B8, B4 is 34-fold higher in “Human VPAC2 Receptor: Alpha Screen” value: 0.19 nM for the first, 6.5 nM for the second.

For B5, the “Human VPAC2 Receptor: Alpha Screen” value was 0.12 nM.

Molecular target: T4, human PAC1 (Homo sapiens, UniProt P41586)
T4 construct: expressed in transfected cells
T4 sequence (P41586 21-468): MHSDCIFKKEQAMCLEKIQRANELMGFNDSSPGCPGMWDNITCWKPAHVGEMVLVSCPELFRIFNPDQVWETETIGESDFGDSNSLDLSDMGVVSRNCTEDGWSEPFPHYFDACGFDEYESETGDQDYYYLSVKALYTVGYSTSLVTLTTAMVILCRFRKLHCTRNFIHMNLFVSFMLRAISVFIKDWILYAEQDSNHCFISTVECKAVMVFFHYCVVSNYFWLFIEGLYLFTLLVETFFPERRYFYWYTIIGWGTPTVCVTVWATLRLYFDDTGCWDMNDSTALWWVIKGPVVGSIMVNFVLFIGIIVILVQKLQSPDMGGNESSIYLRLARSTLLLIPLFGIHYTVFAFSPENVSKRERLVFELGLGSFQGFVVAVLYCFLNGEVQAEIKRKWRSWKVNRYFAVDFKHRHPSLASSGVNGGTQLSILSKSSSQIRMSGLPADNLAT
Assay: Filter binding assay, 125I-labeled PACAP-27 tracer, PAC1 membranes
Details: read-out: Human PAC1 Receptor Binding (IC50; nM)

`CCCCCC(=O)N[C@@H](Cc1c[nH]cn1)C(=O)N[C@@H](CO)C(=O)N[C@@H](CCC(=O)O)C(=O)N[C@@H](C)C(=O)N[C@H](C(=O)N[C@@H](Cc1ccccc1)C(=O)N[C@H](C(=O)N[C@@H](CCC(=O)O)C(=O)N[C@@H](CCC(N)=O)C(=O)N[C@@H](Cc1ccc(OC)cc1)C(=O)N[C@H](C(=O)N[C@@H](CCCN)C(=O)N[C@@H](CC(C)C)C(=O)N[C@@H](CCCNC(=N)N)C(=O)NC(C)(C)C(=O)N[C@@H](CCC(N)=O)C(=O)N[C@@H](CC(C)C)C(=O)N[C@@H](C)C(=O)N[C@@H](C)C(=O)NC(C)(C)C(=O)N[C@@H](CCCN)C(=O)N[C@@H](Cc1ccc(O)cc1)C(=O)N[C@@H](CC(C)C)C(=O)N[C@@H](CCC(N)=O)C(=O)N[C@@H](CO)C(=O)N[C@H](C(=O)N[C@@H](CCCN)C(=O)N[C@@H](CCCN)C(=O)NCC(=O)NCC(=O)N1CCC[C@H]1C(=O)N[C@@H](CO)C(=O)N[C@@H](CO)C(=O)NCC(=O)N[C@@H](C)C(=O)N1CCC[C@H]1C(=O)N1CCC[C@H]1C(=O)N1CCC[C@H]1C(=O)N[C@@H](CO)C(=O)O)[C@@H](C)CC)[C@@H](C)O)[C@@H](C)O)C(C)C` [Agonist P393] (Hexanoyl-HSEAVFTEQY(Me)T[Orn]LR[Aib]QLAA[Aib][Orn]YLQSI[Orn][Orn]GGPSSGAPPPS-OH; C-terminus assumed) and `CCCCCC(=O)N[C@@H](Cc1c[nH]cn1)C(=O)N[C@@H](CO)C(=O)N[C@@H](CC(=O)O)C(=O)N[C@@H](C)C(=O)N[C@H](C(=O)N[C@@H](Cc1ccccc1)C(=O)N[C@H](C(=O)N[C@@H](CC(=O)O)C(=O)N[C@@H](CO)C(=O)N[C@@H](Cc1ccc(O)cc1)C(=O)N[C@H](C(=O)N[C@@H](CCCN)C(=O)N[C@@H](CC(C)C)C(=O)N[C@@H](CCCNC(=N)N)C(=O)NC(C)(C)C(=O)N[C@@H](CCC(N)=O)C(=O)N[C@H](C(=O)N[C@@H](C)C(=O)N[C@@H](C)C(=O)NC(C)(C)C(=O)N[C@@H](CCCCN)C(=O)N[C@@H](Cc1ccc(O)cc1)C(=O)N[C@@H](CC(C)C)C(=O)N[C@@H](CCC(N)=O)C(=O)N[C@@H](CO)C(=O)N[C@H](C(=O)N[C@@H](CCCN)C(=O)N[C@@H](CC(N)=O)C(=O)N[C@@H](CCCN)C(=O)NCC(=O)NCC(=O)N1CCC[C@H]1C(=O)N[C@@H](CO)C(=O)N[C@@H](CO)C(=O)NCC(=O)N[C@@H](C)C(=O)N1CCC[C@H]1C(=O)N1CCC[C@H]1C(=O)N1CCC[C@H]1C(=O)N[C@@H](CO)C(=O)O)[C@@H](C)CC)C(C)C)[C@@H](C)O)[C@@H](C)O)C(C)C` [Agonist P392] (Hexanoyl-HSDAVFTDSYT[Orn]LR[Aib]QVAA[Aib]KYLQSI[Orn]N[Orn]GGPSSGAPPPS-OH; C-terminus assumed) cannot be ordered by IC50: greater than 25000 nM for the first, greater than 25000 nM for the second.

`CCCCCC(=O)N[C@@H](Cc1c[nH]cn1)C(=O)N[C@@H](CO)C(=O)N[C@@H](CC(=O)O)C(=O)N[C@@H](C)C(=O)N[C@H](C(=O)N[C@@H](Cc1ccccc1)C(=O)N[C@H](C(=O)N[C@@H](CC(=O)O)C(=O)N[C@@H](CC(N)=O)C(=O)N[C@@H](Cc1ccc(O)cc1)C(=O)N[C@H](C(=O)N[C@@H](CCCN)C(=O)N[C@@H](CC(C)C)C(=O)N[C@@H](CCCNC(=N)N)C(=O)NC(C)(C)C(=O)N[C@@H](CCC(N)=O)C(=O)N[C@H](C(=O)N[C@@H](C)C(=O)N[C@@H](C)C(=O)NC(C)(C)C(=O)N[C@@H](CCCCN)C(=O)N[C@@H](CO)C(=O)N[C@@H](CC(C)C)C(=O)N[C@@H](CCC(N)=O)C(=O)N[C@@H](CO)C(=O)N[C@H](C(=O)N[C@@H](CCCN)C(=O)N[C@@H](CC(N)=O)C(=O)N[C@@H](CCCN)C(=O)NCC(=O)NCC(=O)N1CCC[C@H]1C(=O)N[C@@H](CO)C(=O)N[C@@H](CO)C(=O)NCC(=O)N[C@@H](C)C(=O)N1CCC[C@H]1C(=O)N1CCC[C@H]1C(=O)N1CCC[C@H]1C(=O)N[C@@H](CO)C(=O)O)[C@@H](C)CC)C(C)C)[C@@H](C)O)[C@@H](C)O)C(C)C` [Agonist P385] (Hexanoyl-HSDAVFTDNYT[Orn]LR[Aib]QVAA[Aib]KSLQSI[Orn]N[Orn]GGPSSGAPPPS-OH; C-terminus assumed) and `CCCCCC(=O)N[C@@H](Cc1c[nH]cn1)C(=O)N[C@@H](CO)C(=O)N[C@@H](CC(=O)O)C(=O)N[C@@H](C)C(=O)N[C@H](C(=O)N[C@@H](Cc1ccccc1)C(=O)N[C@H](C(=O)N[C@@H](CC(=O)O)C(=O)N[C@@H](CC(N)=O)C(=O)N[C@@H](Cc1ccc(O)cc1)C(=O)N[C@H](C(=O)N[C@@H](CCCN)C(=O)N[C@@H](CC(C)C)C(=O)N[C@@H](CCCNC(=N)N)C(=O)NC(C)(C)C(=O)N[C@@H](CCC(N)=O)C(=O)N[C@@H](CO)C(=O)N[C@@H](C)C(=O)N[C@@H](C)C(=O)NC(C)(C)C(=O)N[C@@H](CCCCN)C(=O)N[C@@H](Cc1ccc(O)cc1)C(=O)N[C@@H](CC(C)C)C(=O)N[C@@H](CCC(N)=O)C(=O)N[C@@H](CO)C(=O)N[C@H](C(=O)N[C@@H](CCCN)C(=O)N[C@@H](CC(N)=O)C(=O)N[C@@H](CCCN)C(=O)NCC(=O)NCC(=O)N1CCC[C@H]1C(=O)N[C@@H](CO)C(=O)N[C@@H](CO)C(=O)NCC(=O)N[C@@H](C)C(=O)N1CCC[C@H]1C(=O)N1CCC[C@H]1C(=O)N1CCC[C@H]1C(=O)N[C@@H](CO)C(=O)O)[C@@H](C)CC)[C@@H](C)O)[C@@H](C)O)C(C)C` [Agonist P389] (Hexanoyl-HSDAVFTDNYT[Orn]LR[Aib]QSAA[Aib]KYLQSI[Orn]N[Orn]GGPSSGAPPPS-OH; C-terminus assumed) cannot be ordered by IC50: greater than 25000 nM for the first, greater than 25000 nM for the second.
